# Laboratory results reported in publication PMC8357417, “CTP and parS coordinate ParB partition complex dynamics and ParA-ATPase activation for ParABS-mediated DNA partitioning” (eLife, 2021).
# Assays:
# EcoRI (Escherichia coli) = EcoRI (Escherichia coli) (UniProt P00642); details: cited from earlier work
# [1] = molecular target: T1, ParAF (F-plasmid (E. coli)) (UniProt P62556)
# T1 sequence: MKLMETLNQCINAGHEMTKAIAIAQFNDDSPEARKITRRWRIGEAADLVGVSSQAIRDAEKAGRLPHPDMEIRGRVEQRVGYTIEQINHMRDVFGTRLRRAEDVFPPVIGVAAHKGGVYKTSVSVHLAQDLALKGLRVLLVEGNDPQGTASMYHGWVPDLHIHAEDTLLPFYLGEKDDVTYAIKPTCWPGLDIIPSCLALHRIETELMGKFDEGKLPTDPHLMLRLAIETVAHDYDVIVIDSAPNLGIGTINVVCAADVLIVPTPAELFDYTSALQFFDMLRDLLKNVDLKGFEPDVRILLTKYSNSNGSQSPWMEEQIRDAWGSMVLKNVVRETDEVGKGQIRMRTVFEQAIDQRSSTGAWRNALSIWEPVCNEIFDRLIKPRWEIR
# [2] = molecular target: T1, ParAF (F-plasmid (E. coli)); remark: listed apart in the source
# ParAF-eGFP [3] = molecular target: T2, ParAF-eGFP (F-plasmid (E. coli), UniProt P62556 1-388); assay: TIRF microscopy of fluorescent proteins on an nsDNA carpet; as a1, but the wash buffer contained ATPgammaS and 10 uM ParBF^1-42-mCherry or ParBF^(1-42 R36A)-mCherry; apparent rate constants; details: both partners purified
# T2 construct: ParA ATPase of the F plasmid (ParAF, also called SopA); SGGG linker between ParAF and eGFP; concentrations and ratios are per monomer; also called SopA; source: E. coli BL21 DE3 AI, purified (HisTrap, Mono Q, S200 size exclusion)
# T2 sequence (looked up): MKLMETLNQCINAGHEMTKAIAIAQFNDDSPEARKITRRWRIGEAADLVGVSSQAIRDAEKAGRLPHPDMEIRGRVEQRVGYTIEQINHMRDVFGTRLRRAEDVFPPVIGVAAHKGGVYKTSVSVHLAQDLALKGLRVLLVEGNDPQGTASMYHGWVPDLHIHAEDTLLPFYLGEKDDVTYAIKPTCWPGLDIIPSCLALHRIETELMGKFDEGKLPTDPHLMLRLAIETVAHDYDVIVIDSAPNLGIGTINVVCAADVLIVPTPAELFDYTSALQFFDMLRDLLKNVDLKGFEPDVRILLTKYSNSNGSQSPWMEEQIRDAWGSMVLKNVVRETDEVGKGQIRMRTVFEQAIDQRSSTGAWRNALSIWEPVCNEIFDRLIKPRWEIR
# ParAF-eGFP [4] = molecular target: T2, ParAF-eGFP; assay: TIRF microscopy of fluorescent proteins on an nsDNA carpet; ParAF-eGFP (1 uM) and labelled ParBF variant (2 uM, or 10 uM for the 1-42-mCherry fusions) preincubated 10 min at room temperature with 1 mM ATPgammaS, infused over an nsDNA carpet, then washed with buffer containing ATPgammaS; no parSF, no C-nucleotide; 300 mM K-glutamate TIRFM buffer pH 7.5; apparent rate constants; details: both partners purified
# ParAF-eGFP [5] = molecular target: T2, ParAF-eGFP; assay: as above; details: both partners purified; remark: listed apart in the source
# [6] = substrate: Nc1ccn([C@@H]2O[C@H](COP(=O)(O)OP(=O)(O)OP(=O)(O)O)[C@@H](O)[C@H]2O)c(=O)n1; assay: phosphate release, MESG/purine nucleoside phosphorylase (EnzChek), initial rates; type: biochemical, Escherichia coli; details: no parSF DNA, 0.84 μM ParBF, 2 mM MgCl2, 100 mM NaCl, pH 7.5
# [7] = molecular target: the molecule itself; assay: FRET or BRET; ParBF labelled with Alexa 488 or Alexa 594 mixed at equal concentrations, FRET efficiency in a plate reader; monomer to dimer; apparent KD
# ParAF-eGFP [8] = molecular target: T2, ParAF-eGFP; assay: TIRF microscopy of fluorescent proteins on an nsDNA carpet; as a5, with CTP (2 mM) and the 24 bp parSF fragment (1.1 uM); apparent rate constants; details: both partners purified
# ParAF-eGFP [9] = molecular target: T2, ParAF-eGFP; assay: TIRF microscopy of fluorescent proteins on an nsDNA carpet; as a1, with the 24 bp parSF DNA fragment (1.1 uM) in the sample; apparent rate constants; details: both partners purified
# ParAF-eGFP [10] = molecular target: T2, ParAF-eGFP; assay: TIRF microscopy of fluorescent proteins on an nsDNA carpet; as a6, with CDP instead of CTP, with the 24 bp parSF fragment (1.1 uM); apparent rate constants; details: both partners purified
# ParAF-eGFP [11] = molecular target: T2, ParAF-eGFP; assay: TIRF microscopy of fluorescent proteins on an nsDNA carpet; as a1, with ATPgammaS (1 mM) and CTP (2 mM), no parSF; wash with ATPgammaS and CTP; apparent rate constants; details: both partners purified
# Chain of EcoRI (P00642 2-277): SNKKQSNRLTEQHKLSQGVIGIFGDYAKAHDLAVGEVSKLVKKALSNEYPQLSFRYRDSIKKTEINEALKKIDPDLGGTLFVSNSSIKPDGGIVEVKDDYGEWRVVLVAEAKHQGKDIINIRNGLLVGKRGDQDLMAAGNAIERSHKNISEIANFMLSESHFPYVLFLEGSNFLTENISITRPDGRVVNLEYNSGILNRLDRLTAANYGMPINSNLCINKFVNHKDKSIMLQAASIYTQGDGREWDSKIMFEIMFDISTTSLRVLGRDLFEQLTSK
molecule,measurement,setting,value
EcoRI (from UniProt P00642),Kd,EcoRI (Escherichia coli),< 0.02 nM
ParBF^1-42-mCherry-EcoRI^E111Q,ParAF-ATPase stimulation against ParBF^1-42-mCherry-EcoRI^E111Q concentration: KA (apparent total concentration for half-maximum stimulation); pBR322 nsDNA + EcoRI DNA fragment,[1],0.16 µM
same,ParAF-ATPase stimulation against ParBF^1-42-mCherry-EcoRI^E111Q concentration: KA (apparent total concentration for half-maximum stimulation); pBR322 nsDNA + Scram DNA,[1],0.16 µM
same,ParAF-ATPase stimulation against ParBF^1-42-mCherry-EcoRI^E111Q concentration: K (half),[2],0.15 µM
"MKRAPVIPKHTLNTQPVEDTSLSTPAAPMVDSLIARVGVMAR (domain or fragment, F-plasmid (E. coli), ParBF^1-42 fused to the N-terminus of mCherry through an SGGG linker; His6 at the C-terminus of the fusion; Monomer by gel filtration; also called monomeric ParBF^1-42-mCherry; source: E. coli BL21 DE3 AI, purified (HisTrap after lysis in 6 M guanidinium chloride, S200 size exclusion); not shown: mCherry, C-terminal, kept) [ParBF^1-42-mCherry]",ParAF-ATPase stimulation against ParBF^1-42 concentration: KA (apparent total concentration for half-maximum stimulation); pBR322 nsDNA,[1],1.2 µM
same,"apparent koff from the nsDNA carpet together with ParAF, ParBF^1-42-mCherry in the wash (ParBF signal)",ParAF-eGFP [3],0.0148 s⁻¹
same,koff,ParAF-eGFP [4],0.105 s⁻¹
same,stoichiometry N,ParAF-eGFP [4],"1.27 ParBF per ParAF (A:B ratio, monomers)"
"MKRAPVIPKHTLNTQPVEDTSLSTPAAPMVDSLIAAVGVMAR (domain or fragment, F-plasmid (E. coli), SGGG linker between ParBF^(1-42 R36A) and mCherry; His6 at the C-terminus of the fusion; source: E. coli BL21 DE3 AI, purified (HisTrap after lysis in 6 M guanidinium chloride, S200 size exclusion); not shown: mCherry, C-terminal, kept) [ParBF^(1-42 R36A)-mCherry]",ParAF-ATPase stimulation against ParBF^(1-42 R36A) concentration: KA (apparent total concentration for half-maximum stimulation); pBR322 nsDNA,[1],108 µM
same,"apparent koff from the nsDNA carpet together with ParAF, ParBF^(1-42 R36A)-mCherry in the wash (ParBF signal)",ParAF-eGFP [3],0.03 s⁻¹
same,stoichiometry N,ParAF-eGFP [3],"0.92 ParBF per ParAF (A:B ratio, monomers)"
same,steady-state density on the DNA carpet relative to ParBF^1-42-mCherry,ParAF-eGFP [5],< 10%
same,koff,ParAF-eGFP [4],0.867 s⁻¹
"ParBF (Escherichia coli K-12) (protein, full-length, C-terminal hexa-histidine tag kept, expressed in E. coli BL21 DE3 AI (plasmid pX8); dimer) MKRAPVIPKHTLNTQPVEDTSLSTPAAPMVDSLIARVGVMARGNAITLPVCGRDVKFTLEVLRGDSVEKTSRVWSGNERDQELLTEDALDDLIPSFLLTGQQTPAFGRRVSGVIEIADGSRRRKAAALTESDYRVLVGELDDEQMAALSRLGNDYRPTSAYERGQRYASRLQNEFAGNISALADAENISRKIITRCINTAKLPKSVVALFSHPGELSARSGDALQKAFTDKEELLKQQASNLHEQKKAGVIFEAEEVITLLTSVLKTSSASRTSLSSRHQFAPGATVLYKGDKMVLNLDRSRVPTECIEKIEAILKELEKPAP",Km,[6],~8 µM
same,kcat,[6],~0.00389 s⁻¹
"ParBF (full-length), ParBF-Alexa647 (natural protein, F-plasmid (E. coli), UniProt P62558 1-323, looked up, Alexa Fluor 647 C2 maleimide label (DNA-carpet TIRFM assays); Alexa 488 or Alexa 594 label (FRET dimerisation assay), ParB of the F plasmid (ParBF, also called SopB); One molecule for the same construct with different dyes; ATPase and magnetic-tweezers results are printed for 'ParBF' without a dye; concentrations and ratios are per monomer; also called Alexa647-ParBF; WT ParBF; source: E. coli BL21 DE3 AI, purified (HisTrap, Mono S, S200 size exclusion)) MKRAPVIPKHTLNTQPVEDTSLSTPAAPMVDSLIARVGVMARGNAITLPVCGRDVKFTLEVLRGDSVEKTSRVWSGNERDQELLTEDALDDLIPSFLLTGQQTPAFGRRVSGVIEIADGSRRRKAAALTESDYRVLVGELDDEQMAALSRLGNDYRPTSAYERGQRYASRLQNEFAGNISALADAENISRKIITRCINTAKLPKSVVALFSHPGELSARSGDALQKAFTDKEELLKQQASNLHEQKKAGVIFEAEEVITLLTSVLKTSSASRTSLSSRHQFAPGATVLYKGDKMVLNLDRSRVPTECIEKIEAILKELEKPAP",Kd,[7],~18.5 nM
same,"apparent koff of the ParAF-ParBF complex from the nsDNA carpet (ParBF signal), with CTP and parSF",ParAF-eGFP [8],0.0138 s⁻¹
same,stoichiometry N,ParAF-eGFP [8],"2.16 ParBF per ParAF (A:B ratio, monomers)"
same,"apparent koff of the ParAF-ParBF complex from the nsDNA carpet (ParBF signal), with parSF",ParAF-eGFP [9],0.0137 s⁻¹
same,stoichiometry N,ParAF-eGFP [9],"2.17 ParBF per ParAF (A:B ratio, monomers)"
same,"apparent koff of the ParAF-ParBF complex from the nsDNA carpet (ParBF signal), with CDP and parSF",ParAF-eGFP [10],0.00883 s⁻¹
same,stoichiometry N,ParAF-eGFP [10],"2.53 ParBF per ParAF (A:B ratio, monomers)"
same,"apparent koff of the ParAF-ParBF complex from the nsDNA carpet (ParBF signal), with CTP",ParAF-eGFP [11],0.0108 s⁻¹
same,stoichiometry N,ParAF-eGFP [11],"2.16 ParBF per ParAF (A:B ratio, monomers)"
same,apparent koff of the ParAF-ParBF complex from the nsDNA carpet (ParBF signal),ParAF-eGFP [4],0.0148 s⁻¹
same,stoichiometry N,ParAF-eGFP [4],"1.1 ParBF per ParAF (A:B ratio, monomers)"
"ParBF^R121A (natural protein, F-plasmid (E. coli), UniProt P62558 1-323, looked up, Alexa Fluor 647 C2 maleimide label (fluorescently labeled ParBF^R121A), ParB of the F plasmid (ParBF, SopB) with R121A in the Box II region of the CTPase domain; ATPase results are printed without a dye; also called Box II mutant ParBF^R121A; source: E. coli BL21 DE3 AI, purified (HisTrap, Mono S, S200 size exclusion)) MKRAPVIPKHTLNTQPVEDTSLSTPAAPMVDSLIARVGVMARGNAITLPVCGRDVKFTLEVLRGDSVEKTSRVWSGNERDQELLTEDALDDLIPSFLLTGQQTPAFGRRVSGVIEIADGSARRKAAALTESDYRVLVGELDDEQMAALSRLGNDYRPTSAYERGQRYASRLQNEFAGNISALADAENISRKIITRCINTAKLPKSVVALFSHPGELSARSGDALQKAFTDKEELLKQQASNLHEQKKAGVIFEAEEVITLLTSVLKTSSASRTSLSSRHQFAPGATVLYKGDKMVLNLDRSRVPTECIEKIEAILKELEKPAP","apparent koff of the ParAF-ParBF^R121A complex from the nsDNA carpet (ParBF signal), with parSF",ParAF-eGFP [9],0.013 s⁻¹
same,stoichiometry N,ParAF-eGFP [9],"1.12 ParBF per ParAF (A:B ratio, monomers)"
same,apparent koff of the ParAF-ParBF^R121A complex from the nsDNA carpet (ParBF signal),ParAF-eGFP [4],0.013 s⁻¹
same,stoichiometry N,ParAF-eGFP [4],"0.99 ParBF per ParAF (A:B ratio, monomers)"
